For test [1], the target named is HLA-B*35:01. The test is described as follows: IEDB peptide-MHC binding, purified MHC/competitive/radioactivity; filed as Kd, often an IC50 or EC50 that approximates it; ≥ and ≤ were set here for values at or beyond the usual limits of such assays.
For test [2], the target named is HLA-B*53:01. The test is described as above.
For test [3], the target named is HLA-B*51:01. The test is described as follows: IEDB peptide-MHC binding, purified MHC/competitive/fluorescence; filed as Kd, often an IC50 or EC50 that approximates it; ≥ and ≤ were set here for values at or beyond the usual limits of such assays. The following applies: source organism: Entamoeba histolytica HM-1:IMSS.
Test [4] concerns the target HLA-A*01:01. The test is described as follows: IEDB peptide-MHC binding, purified MHC/competitive/radioactivity; filed as Kd, often an IC50 or EC50 that approximates it; ≥ and ≤ were set here for values at or beyond the usual limits of such assays.
For test [5], the target named is HLA-A*23:01. Described as above. The following applies: source organism: Mammarenavirus machupoense.
For test [6], the target named is HLA-A*24:02. The test is described as above. The following applies: source organism: Mammarenavirus machupoense.
Test [7] has as its target HLA-A*26:01. The description is as above.
The target of test [8] is HLA-A*29:02. Described as above.
The target in test [9] is HLA-A*30:01. Described as above.
Test [10] addresses HLA-A*30:02. The description is as above.
The target of test [11] is HLA-A*32:01. The description is as above.
For test [12], the target named is HLA-B*15:01. The test is described as above. As to conditions: source organism: Dengue virus 4 Philippines/H241/1956.
The target of test [13] is HLA-A*68:01. Described as above. As to conditions: source organism: Dengue virus 2 Jamaica/1409/1983.
The target in test [14] is HLA-A*24:03. The test is described as follows: IEDB peptide-MHC binding, purified MHC/direct/fluorescence; filed as Kd, often an IC50 or EC50 that approximates it; ≥ and ≤ were set here for values at or beyond the usual limits of such assays. The following applies: source organism: Mycobacterium tuberculosis variant bovis.
The target in test [15] is HLA-B*07:02. The test is described as follows: IEDB peptide-MHC binding, purified MHC/competitive/radioactivity; filed as Kd, often an IC50 or EC50 that approximates it; ≥ and ≤ were set here for values at or beyond the usual limits of such assays.
Test [16] concerns the target HLA-B*51:01. Described as above.
Setting [17] is: source organism: Dengue virus 3 Martinique/1243/1999.
Where [18] appears, read: source organism: Dengue virus 4 Philippines/H241/1956.
Where [19] appears, read: source organism: Mammarenavirus machupoense.
Setting [20] is: source organism: Lassa virus Josiah.
Setting [21] is: source organism: Dengue virus 1 Brazil/97-11/1997.
The mark [22] stands for this setting: source organism: Dengue virus 2 Jamaica/1409/1983.
Setting [23] is: source organism: Dengue virus 1 Singapore/S275/1990.
[24] abbreviates: source organism: Vaccinia virus WR.
[25] abbreviates: source organism: Lymphocytic choriomeningitis virus (strain Armstrong).

The source of these data is the Immune Epitope Database (IEDB).

Bounds are passed on as bounds.

A word on the Kd: it is the constant that tells how readily two partners part at equilibrium.

On to APTRVVAAEM, for which the equilibrium dissociation constant (Kd) in test [1] (setting [17]) is 20.3 nM.
As to CPLLVNTEPE, the Kd in test [2] (setting [18]) came out at 1650 nM.
Consider CPLNQLEQF, for which the Kd in [3] is no less than 20 µM.
Consider CTNFKTQLV, for which the dissociation constant (Kd) is 1.15 µM in test [4] (setting [19]); no less than 77.7 µM in test [5]; no less than 77.5 µM in test [6]; 13.2 µM in [7] (setting [19]); 4460 nM in test [8] (setting [19]); 1040 nM in test [9] (setting [19]). Further, the figures for the equilibrium dissociation constant (Kd) in test [10] (setting [19]) and in [11] (setting [19]) were 2290 nM and no less than 77.8 µM, respectively.
Regarding CWLVSNGSY, the Kd in test [4] (setting [20]) is 13.9 µM; in test [7] (setting [20]), no less than 34.4 µM; in [8] (setting [20]), 543 nM; in test [9] (setting [20]), 16900 nM; in [10] (setting [20]), 6.3 nM; in test [11] (setting [20]), 18.8 µM.
With DIMGIPYCNY, the dissociation constant (Kd) was no less than 28.9 µM in test [4] (setting [20]); 0.541 µM in test [7] (setting [20]); 105 nM in test [8] (setting [20]); no less than 70400 nM in test [9] (setting [20]); 444 nM in test [10] (setting [20]); no less than 69.9 µM in test [11] (setting [20]).
As for EPIPMATYGW, the values for the dissociation constant Kd in test [7] (setting [21]) and in test [2] (setting [21]) were no less than 69.7 µM and 13.2 nM, respectively.
For EPKEGTKKLM, in test [1] (setting [22]), the Kd is no less than 54400 nM.
For EPWLKNNQF, the Kd came to 1030 nM in test [1] (setting [17]) and 2580 nM in test [2] (setting [17]).
Take FALLAGFMAY: the equilibrium dissociation constant (Kd) came to 13.5 µM in [4] (setting [18]), 6.41 nM in [12], 13.3 nM in test [1] (setting [18]) and 3150 nM in test [2] (setting [18]).
In the case of FTMRLLSPVR, the dissociation constant Kd in test [9] (setting [22]) stood at 9070 nM; in test [13] it was 7.73 nM.
Take FTTRHRKPTY: the results for the Kd in [4] (setting [18]) and in [9] (setting [18]) were no less than 23.6 µM and 1960 nM, respectively.
Consider GPGHEEPVPM, for which, in test [1] (setting [17]), the Kd turned out to be 7200 nM.
Regarding GVYPLSIPAT, the Kd in [9] (setting [23]) was found to be 1900 nM.
Consider GYAGTLQSL, for which the Kd in [14] came out at 0.9 nM.
For the sequence HAIVINPFV, the Kd in test [9] (setting [24]) is 221 nM.
Same read-out and setting: as for IIKSSYVFK, the figure is 10.9 nM.
As to IPEGRVIDL, the Kd in test [15] (setting [17]) came out at 140 nM.
IPKIYGGPI: the dissociation constant (Kd) in test [15] (setting [23]) was 14.2 nM; in test [16] (setting [23]) it was 630 nM.
As for IPYDPKFEK, the Kd in test [16] (setting [22]) stood at 2200 nM.
Turning to ITNELNYVLW, in test [2] (setting [18]), the Kd was 483 nM.
As to IWGRKSWPLN, the Kd in test [9] (setting [21]) stood at 2050 nM.
Consider KLRPKWLDA, for which, in [9] (setting [18]), the equilibrium dissociation constant (Kd) is 32.7 nM.
On to KLSHSDYEY, for which the Kd in [4] (setting [25]) is 2.58 µM; in test [7] (setting [25]), no less than 77.9 µM; in [8] (setting [25]) it was 1260 nM; in test [9] (setting [25]), no less than 24200 nM; in test [10] (setting [25]), 22.5 nM; in [11] (setting [25]), 6.39 µM.
As for KYRYGTFLY, the dissociation constant Kd in test [9] (setting [24]) is 1.07 nM.
